According to patent US20170313781A1 (IMMUNOMEDICS, published 2017):
Like-named read-outs stand apart in the source and are kept apart here. One block for each molecule: values may come before it.

Assays:
[1] = target: human Trop-2 on the surface of human tumor cells (human) (UniProt P09758); test: cell binding on NCI-N87 cells, Bmax compared to RS7
[2] = target: human Trop-2 on the surface of human tumor cells (human) (UniProt P09758); test: cell binding on NCI-N87 cells, anti-mouse-HRP, luminescence
[3] = target: human Trop-2 on the surface of human tumor cells (human) (UniProt P09758); test: cell binding assay
[4] = target: human Trop-2 on the surface of human tumor cells (human) (UniProt P09758); test: cell-based or functional assay
[5] = target: recombinant human neonatal receptor (FcRn) (human) (UniProt P55899); test: SPR (BIACORE), FcRn chip
[6] = target: rhTrop-2/TACSTD2 (Sino Biological, Inc.) immobilized on a CM5 sensor chip (human) (UniProt P09758); test: SPR (BIACORE), Trop-2 chip
[7] = target: recombinant human neonatal receptor (FcRn) (human) (UniProt P55899); test: SPR (BIACORE), low-density FcRn chip, three runs, 400 to 25 nM
[8] = target: rhTrop-2/TACSTD2 (Sino Biological, Inc.) immobilized on a CM5 sensor chip (human) (UniProt P09758); test: SPR (BIACORE), low-density recombinant human Trop-2 chip, three runs
[9] = target: T1, human Trop-2 on the surface of human tumor cells (human, UniProt P09758 27-323); test: cell binding on NCI-N87 cells, anti-mouse-HRP, luminescence
T1 construct: whole, on cells; also called EGP-1; TACSTD2
T1 sequence (looked up): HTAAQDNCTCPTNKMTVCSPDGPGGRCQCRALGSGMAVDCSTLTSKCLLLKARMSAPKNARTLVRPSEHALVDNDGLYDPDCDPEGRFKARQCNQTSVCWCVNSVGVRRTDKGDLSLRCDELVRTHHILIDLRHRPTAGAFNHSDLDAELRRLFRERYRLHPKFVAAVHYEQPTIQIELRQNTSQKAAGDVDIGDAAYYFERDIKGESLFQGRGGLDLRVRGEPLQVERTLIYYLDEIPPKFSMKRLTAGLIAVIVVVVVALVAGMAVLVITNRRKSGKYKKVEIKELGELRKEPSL

[10] = target: human Trop-2 on the surface of human tumor cells (human) (UniProt P09758); test: cell-based or functional assay; remark: listed apart in the source
[11] = target: recombinant human Trop-2 with a His-tag (Sino Biological, Cat#10428-H09H) (human) (UniProt P09758); test: ELISA on Ni-NTA strips coated with recombinant His-tagged human Trop-2

Molecule: 162-46.2 murine monoclonal antibody against human Trop-2
- reduction of Bmax against RS7 [1]: 25%
- Kd [2]: 0.52 nM
- maximum binding (Bmax) (relative luminescent units) [2]: 8470

B1: murine RS7 anti-Trop-2 monoclonal antibody (antibody, V domains shown)
VH: VKLQESGPELKKPGETVKISCKASGYTFTNYGMNWVKQAPGKGLKWMGWINTYTGEPTYTDDFKGRFAFSLETSATTAYLQINNLKSEDMATYFCARGGFGSSYWYFDVWGQGTTVTVSS
VL: DIQLTQSHKFMSTSVGDRVSITCKASQDVSIAVAWYQQKPGQSPKLLIYSASYRYTGVPDRFTGSGSGTDFTFTISSVQAEDLAVYYCQQHYITPLTFGAGTKLELK
- Kd [9]: 0.57 nM

B2: humanized RS7 (hRS7) anti-Trop-2 IgG (antibody, INN chains, looked up, V domains shown)
VH: QVQLQQSGSELKKPGASVKVSCKASGYTFTNYGMNWVKQAPGQGLKWMGWINTYTGEPTYTDDFKGRFAFSLDTSVSTAYLQISSLKADDTAVYFCARGGFGSSYWYFDVWGQGSLVTVSS
VL: DIQLTQSPSSLSASVGDRVSITCKASQDVSIAVAWYQQKPGKAPKLLIYSASYRYTGVPDRFSGSGSGTDFTLTISSLQPEDFAVYYCQQHYITPLTFGAGTKVEIK
- ADCC, percent specific lysis of BxPC-3 cells (PBMC effectors, E:T 100:1, 33.3 nM) [10]: 8.5%
- ADCC, percent specific lysis of MDA-MB-468 cells (LDH release, E:T 50:1, 33.3 nM) [10]: 29.8%
- Kd [7]: 92.4 nM
- Kd [8]: 0.51 nM
- Kd [11]: 0.3 nM

B3: hRS7-CL2-SN-38 (antibody, INN chains, looked up, V domains shown)
VH: B2 VH
VL: B2 VL
modifications: SN-38 via CL2 linker
- Kd [3]: 1.2 nM

The next lines start with the values.

- reduction of Bmax against RS7 [1]: 50%
- Kd [2]: 0.49 nM
- maximum binding (Bmax) (relative luminescent units) [2]: 6020
Molecule: MAB650 murine monoclonal antibody against human Trop-2 (R&D Systems)

- Kd [3]: 1.2 nM
- ADCC, percent specific lysis of MDA-MB-468 cells (LDH release, E:T 50:1, 33.3 nM) [4]: 8.6%
- median fluorescence intensity of anti-rH2AX-AF488 staining (dsDNA breaks), HCC1806 (Trop-2+) cells [4]: 546 MFI
- γH2AX induction in BxPC-3 cells, Mean Fluorescence Intensity [4]: 5350 MFI
- γH2AX induction in BxPC-3 cells, Percent Positive [4]: 69%
- fold decrease in fold change of average binding level (reference not named; the comparison in paragraph 543 is with hRS7) [5]: 2 fold
- fold improvement of KD against naked hRS7 [6]: 2 fold
- Kd [7]: 192 nM
- Kd [8]: 0.26 nM
Molecule: sacituzumab govitecan (IMMU-132, hRS7-CL2A-SN-38) (antibody)
